According to publication PMC7017467, “Enhancement of bleomycin production in Streptomyces verticillus through global metabolic regulation of N-acetylglucosamine and assisted metabolic profiling analysis”:

T1: DasR (Streptomyces verticillus ATCC 15003, UniProt A0A7M1Y6D7 1-256)
T1 sequence: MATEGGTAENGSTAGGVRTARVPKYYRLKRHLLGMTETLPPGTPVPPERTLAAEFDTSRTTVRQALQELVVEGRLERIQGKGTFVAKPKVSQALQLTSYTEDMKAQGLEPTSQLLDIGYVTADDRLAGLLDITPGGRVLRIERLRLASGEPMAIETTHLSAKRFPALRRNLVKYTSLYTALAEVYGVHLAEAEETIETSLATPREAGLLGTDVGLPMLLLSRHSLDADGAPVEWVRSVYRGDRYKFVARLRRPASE


Molecular target: T1, DasR
Experiment: EMSA; EMSA buffer (composition, pH and temperature not given), 30 min incubation, 6% native polyacrylamide gel
Details: protein: recombinant, tags: C-terminal 6xHis (introduced by reverse primer), chain copies: 2, blunt

Binder | binding result (label: 5'-Cy5) | binding result
PDasA (dsDNA) DNA 1: CCAAAAGGTCTAGGCCAAGCTGCGGGCACTGGTCTAAACCATTAAAGACCACTTTTCGGTCCTGAGGAGA DNA 2: TCTCCTCAGGACCGAAAAGTGGTCTTTAATGGTTTAGACCAGTGCCCGCAGCTTGGCCTAGACCTTTTGG | binds | –
PBlmR (dsDNA) DNA 1: GAGAGCACTGTAAGCCCGAACCCGCAAGGATGACGAATTGCAAAATTGTGCAAGTCGCTACATGATGGTCCGGCTGTGCCCGCAGGTAGCCGCGGGCACAGCACCAGACGCTGCCTCCGCGCACCGCGCGGGAGGCCCGGTGAGGCGAGAGGCTGAGGTTCC DNA 2: GGAACCTCAGCCTCTCGCCTCACCGGGCCTCCCGCGCGGTGCGCGGAGGCAGCGTCTGGTGCTGTGCCCGCGGCTACCTGCGGGCACAGCCGGACCATCATGTAGCGACTTGCACAATTTTGCAATTCGTCATCCTTGCGGGTTCGGGCTTACAGTGCTCTC | – | no binding
